Literature values, collected in PMC5627252.
Read-outs that look alike come from different tables or passages of the source.

Columns and labels:
[1] = molecular target: FcγRIIIa (Homo sapiens) (UniProt P08637)
[2] = molecular target: FcγRIIIa (Homo sapiens) (UniProt P08637); remark: listed apart in the source
[3] = molecular target: FcγRIIIa (Homo sapiens) (UniProt P08637); remark: listed apart in the source

Chain of FcγRIIIa (Homo sapiens) (P08637 17-254): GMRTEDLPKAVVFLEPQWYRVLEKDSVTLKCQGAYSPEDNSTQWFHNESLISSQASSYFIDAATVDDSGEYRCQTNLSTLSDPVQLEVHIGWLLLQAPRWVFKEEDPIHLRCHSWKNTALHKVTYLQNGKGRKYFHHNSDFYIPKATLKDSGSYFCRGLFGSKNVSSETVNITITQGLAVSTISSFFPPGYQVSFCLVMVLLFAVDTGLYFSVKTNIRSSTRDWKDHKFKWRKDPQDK

## IgG1 Fc-Man5 Fc (from UniProt P01857)
[1]
  Kd: 32 nM

## IgG1 Fc-GlcNAc Fc (from UniProt P01857)
[2]
  Kd: 995 nM

## IgG1 Fc-Man8 Fc (from UniProt P01857)
[3]
  Kd: 26 nM
